This is an account of results in patent publication US20230212319A1, “NOVEL ANTIGEN BINDING DOMAINS AND SYNTHETIC ANTIGEN RECEPTORS INCORPORATING THE SAME” (University of Southern California, priority 2020, published 2023).

Holding throughout (type): cell-based
In one assay the test system is U266 cells. Description: JNG NFAT-GFP induction on co-culture with U266.
The subject of the next assay is L363 cells. The experiment in a line: JNG assay, co-culture with L363 cells. The conditions noted are these: co-culture with L363. In a few lines:
(§1)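 Jurkat-NFAT-GFP (JNG) cells stably expressing SAR constructs via lentiviral transduction and puromycin/blasticidin selection were cocultured with target cells at E:T ~1:2 for ~4–18 h. NFAT-driven GFP was measured by FACS versus parental JNG cells; scores +/- to 5+ denote ~5–50% GFP-positive cells.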

A further assay has as its system RS;411. The experiment in a line: JNG assay, co-culture with RS;411 cells. Particulars: co-culture with RS411. An outline of the steps:
as §1

In another assay the test system is Nalm6 cells. The experiment in a line: JNG assay, co-culture with Nalm6 cells. The conditions noted are these: co-culture with Nalm6. An outline of the steps:
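Values are semi-quantitative grades of GFP induction, each step approximating 10% more GFP+ cells (5+ ≈50%) above parental reporter cells, measured by FACS after SAR-transduced JNG cells were cultured with targets at ~1:2 E:T for ~4–18 h.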

Another assay concerns RAJI-CD19-KO cells. The experiment in a line: JNG assay, co-culture with RAJI-CD19-KO cells. The conditions noted are these: co-culture with Raji-CD19-KO. In a few lines:
as §1

Another assay concerns RAJI cells. The experiment in a line: JNG assay, co-culture with RAJI cells. Particulars: JNG cells expressing construct, co-culture with Raji. In a few lines: as §1

B1: 22135 (protein)
chain: MALPVTALLLPLALLLHAARPACEVQLLESGGGLIQPGGSLRLSCAASGFTFSSHAMTWVRQAPGKGLEWVSAISGSGDYTHYADSVKGRFTISRDNSKNTVYLQMNSLRAEDSAVYYCAKDEDGGSLLGHRGQGTLVTVSSGTGGGGSGGGGSGGGGSEFDIQMTQSPSSLSASVGDRVTITCKASDHINNWLAWYQQKPGQAPKLLIYGATTLETGVPSRFSGSGSGTDYTLTISSLQPEDFATYYCQQSWNTPWTFGQGTKLEIKRLEDLKNVFPPEVAVFEPSEAEISHTQKATLVCLATGFYPDHVELSWWVNGKEVHSGVCTDPQPLKEQPALNDSRYCLSSRLRVSATFWQNPRNHFRCQVQFYGLSENDEWTQDRAKPVTQIVSAEAWGRADCGFTSESYQQGVLSATILYEILLGKATLYAVLVSALVLMAMVKRKDSRGRAKRSGSGATNFSLLKQAGDVEENPGPTSATMDWIWRILFLVGAATGAHSGPEVQLVESGGGLVQAGGSLRLSCAASGRTFSMGWFRQAPGKEREFVAAITYSGGSPYYADSVKGRFTISRDNAKNTVYLQMNSLKPEDTAVYYCAANPTYGSDWNAENWGQGTQVTVSSGSGGGGSGGGGSGGGGSFEQVQLQQPGAELVKPGASVKMSCKASGYAFSSYWINWMKQKPGQGLEWIGQIYPGDGDTNYNGKFKGRATLTADTSSSTAYMQLSSLTSEDSAVYFCARSITTVVGCAMDYWGQGTSVTVSSTRIQNPDPAVYQLRDSKSSDKSVCLFTDFDSQTNVSQSKDSDVYITDKCVLDMRSMDFKSNSAVAWSNKSDFACANAFNNSIIPEDTFFPSPESSCDVKLVEKSFETDTNLNFQNLSVIGFRILLLKVAGFNLLMTLRLWSSRAKRSGSGVKQTLNFDLLKLAGDVESNPGPSRGHMTEYKPTVRLATRDDVPRAVRTLAAAFADYPATRHTVDPDRHIERVTELQELFLTRVGLDIGKVWVADDGAAVAVWTTPESVEAGAVFAEIGPRMAELSGSRLAAQQQMEGLLAPHRPKEPAWFLATVGVSPDHQGKGLGSAVVLPGVEAAERAGVPAFLETSAPRNLPFYERLGFTVTADVEVPEGPRTWCMTRKPGA
In the case of B1, the “NFAT-GFP ASSAY: U266” value with U266 cells was 3+ (refer to approximately 5%, 10%, 20%, 30%, 40% and 50% GFP positive cells). In addition, the “NFAT-GFP ASSAY: L363” value with L363 cells is 2+ (refer to approximately 5%, 10%, 20%, 30%, 40% and 50% GFP positive cells). Further, the “NFAT-GFP ASSAY: RS411” value in the assay with RS;411 was 2+ (refer to approximately 5%, 10%, 20%, 30%, 40% and 50% GFP positive cells).

B2: 22245 (protein)
chain: MALPVTALLLPLALLLHAARPACEVQLLESGGGLIQPGGSLRLSCAASGFTFSSHAMTWVRQAPGKGLEWVSAISGSGDYTHYADSVKGRFTISRDNSKNTVYLQMNSLRAEDSAVYYCAKDEDGGSLLGHRGQGTLVTVSSGTGAIGFLRTAEFDIQMTQSPSSLSASVGDRVTITCKASDHINNWLAWYQQKPGQAPKLLIYGATTLETGVPSRFSGSGSGTDYTLTISSLQPEDFATYYCQQSWNTPWTFGQGTKLEIKRLEDLKNVFPPEVAVFEPSKAEIAHTQKATLVCLATGFYPDHVELSWWVNGKEVHSGVCTDPQPLKEQPALNDSRYCLSSRLRVSATFWQNPRNHFRCQVQFYGLSENDEWTQDRAKPVTQIVSAEAWGRADCGITSASYHQGVLSATILYEILLGKATLYAVLVSALVLMAMVKRKDSRGRAKRSGSGATNFSLLKQAGDVEENPGPTSATMDWIWRILFLVGAATGAHSGPEVQLVESGGGLVQAGGSLRLSCAASGRTFSMGWFRQAPGKEREFVAAITYSGGSPYYADSVKGRFTISRDNAKNTVYLQMNSLKPEDTAVYYCAANPTYGSDWNAENWGQGTQVTVSSGSGGGGSGGGGSGGGGSFEQVQLQQPGAELVKPGASVKMSCKASGYAFSSYWINWMKQKPGQGLEWIGQIYPGDGDTNYNGKFKGRATLTADTSSSTAYMQLSSLTSEDSAVYFCARSITTVVGCAMDYWGQGTSVTVSSTRIQNPDPAVYQLRDSKSSDKSVCLFTDFDSQTNVSQSKDSDVYITDKCVLDMRSMDFKSNSAVAWSNKSDFACANAFNNSIIPEDTFFPSPESSCDVKLVEKSFETDTNLNFQNLSVIGFRILLLKVAGFNLLMTLRLWSSRAKRSGSGVKQTLNFDLLKLAGDVESNPGPSRGHMTEYKPTVRLATRDDVPRAVRTLAAAFADYPATRHTVDPDRHIERVTELQELFLTRVGLDIGKVWVADDGAAVAVWTTPESVEAGAVFAEIGPRMAELSGSRLAAQQQMEGLLAPHRPKEPAWFLATVGVSPDHQGKGLGSAVVLPGVEAAERAGVPAFLETSAPRNLPFYERLGFTVTADVEVPEGPRTWCMTRKPGA
Consider B2, for which the “NFAT-GFP ASSAY: U266” value with U266 cells was “+ (refer to approximately 5%, 10%, 20%, 30%, 40% and 50% GFP positive cells)”. In addition, the “NFAT-GFP ASSAY: Nalm6” value in the assay on Nalm6 cells is “+/- (refer to approximately 5%, 10%, 20%, 30%, 40% and 50% GFP positive cells)”. Besides, the “NFAT-GFP ASSAY: L363” value with L363 cells was “+/- (refer to approximately 5%, 10%, 20%, 30%, 40% and 50% GFP positive cells)”. The “NFAT-GFP ASSAY: Raji-CD19-KO” value with RAJI-CD19-KO cells is “+ (refer to approximately 5%, 10%, 20%, 30%, 40% and 50% GFP positive cells)”.

B3: 22217 (protein)
chain: MALPVTALLLPLALLLHAARPACEVQLLESGGGLIQPGGSLRLSCAASGFTFSSHAMTWVRQAPGKGLEWVSAISGSGDYTHYADSVKGRFTISRDNSKNTVYLQMNSLRAEDSAVYYCAKDEDGGSLLGHRGQGTLVTVSSGTGAVVRGAEFDIQMTQSPSSLSASVGDRVTITCKASDHINNWLAWYQQKPGQAPKLLIYGATTLETGVPSRFSGSGSGTDYTLTISSLQPEDFATYYCQQSWNTPWTFGQGTKLEIKRLEDLKNVFPPEVAVFEPSKAEIAHTQKATLVCLATGFYPDHVELSWWVNGKEVHSGVCTDPQPLKEQPALNDSRYCLSSRLRVSATFWQNPRNHFRCQVQFYGLSENDEWTQDRAKPVTQIVSAEAWGRADCGITSASYHQGVLSATILYEILLGKATLYAVLVSALVLMAMVKRKDSRGRAKRSGSGATNFSLLKQAGDVEENPGPTSATMDWIWRILFLVGAATGAHSGPEVQLVESGGGLVQAGGSLRLSCAASGRTFSMGWFRQAPGKEREFVAAITYSGGSPYYADSVKGRFTISRDNAKNTVYLQMNSLKPEDTAVYYCAANPTYGSDWNAENWGQGTQVTVSSGSGGGGSGGGGSGGGGSFEQVQLQQPGAELVKPGASVKMSCKASGYAFSSYWINWMKQKPGQGLEWIGQIYPGDGDTNYNGKFKGRATLTADTSSSTAYMQLSSLTSEDSAVYFCARSITTVVGCAMDYWGQGTSVTVSSTRIQNPDPAVYQLRDSKSSDKSVCLFTDFDSQTNVSQSKDSDVYITDKCVLDMRSMDFKSNSAVAWSNKSDFACANAFNNSIIPEDTFFPSPESSCDVKLVEKSFETDTNLNFQNLSVIGFRILLLKVAGFNLLMTLRLWSSRAKRSGSGVKQTLNFDLLKLAGDVESNPGPSRGHMTEYKPTVRLATRDDVPRAVRTLAAAFADYPATRHTVDPDRHIERVTELQELFLTRVGLDIGKVWVADDGAAVAVWTTPESVEAGAVFAEIGPRMAELSGSRLAAQQQMEGLLAPHRPKEPAWFLATVGVSPDHQGKGLGSAVVLPGVEAAERAGVPAFLETSAPRNLPFYERLGFTVTADVEVPEGPRTWCMTRKPGA
As for B3, the “NFAT-GFP ASSAY: Raji” value with RAJI cells is “+ (refer to approximately 5%, 10%, 20%, 30%, 40% and 50% GFP positive cells)”. Further, the “NFAT-GFP ASSAY: U266” value in the assay with U266 cells is 4+ (refer to approximately 5%, 10%, 20%, 30%, 40% and 50% GFP positive cells). Besides, the “NFAT-GFP ASSAY: Nalm6” value in the assay with Nalm6 cells is 4+ (refer to approximately 5%, 10%, 20%, 30%, 40% and 50% GFP positive cells). The “NFAT-GFP ASSAY: L363” value in the assay on L363 cells was 3+ (refer to approximately 5%, 10%, 20%, 30%, 40% and 50% GFP positive cells). Moreover, in the assay with RAJI-CD19-KO cells, the “NFAT-GFP ASSAY: Raji-CD19-KO” value is 3+ (refer to approximately 5%, 10%, 20%, 30%, 40% and 50% GFP positive cells).
